B1: Late transcription coactivator (Enterobacteria phage T4), P13338 (parent)
chain: MTQFSLNDIRPVDETGLSEKELSIKKEKDEIAKLLDRQENGFIIEKMVEEFGMSYLEATTAFLEENSIPETQFAKFIPSGIIEKIQSEAIDENLLRPSVVRCEKTNTLDFLL

Variants of: B1
Details: with rpob_ecoli rpoB

Row | Variant | effect of a mutation on the interaction
1 | E70K | decreasing interaction strength
